Assay results taken from the supplement of paper PMC6757056.
± gives the standard deviation of the averaged measurements.

B1: library; a variant is named by its letters at N, in order (parent)
chain: GCUGUCACCGAGAAACUGUGAAGUAUAUCUUAAACCUGGGCACUUAAAAGAUAUAUGGAGUUAGUAGUGCAACCUGCUCGGUCUGAUGAGUCCNNNNNNGGACGAAACAGC

Assays:
cyclic di-GMP [1] = variants of: B1; assay: FACS-Seq fitted mean relative fluorescence mCherry/BFP without ligand (log10 relative fluorescence); HEK293T; ligand: cyclic di-GMP (c-di-GMP-II aptamer); higher = higher reporter protein expression; settings: ligand present: no
Procedure, shortened: (§1)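 After lentiviral transduction, HEK293T library cells bearing an mCherry ribozyme-switch reporter and an EF1α-BFP marker were enriched. They were then held for 48 h with or without ligand and sorted by mCherry/BFP into 6 bins, and each bin's genomic DNA was PCR-amplified, barcoded and MiSeq-sequenced. Fluorescence is expressed as a normalized fitted mean: the normal mean of log10(mCherry/BFP) bin counts, scaled to five spiked-in control ribozymes.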

cyclic di-GMP [2] = variants of: B1; assay: normalized RNA/DNA level without ligand (relative to sTRSVctl = 100) (log10 (% of sTRSVctl)); HEK293T; ligand: cyclic di-GMP (c-di-GMP-II aptamer); higher = less ribozyme self-cleavage, higher mRNA level; settings: reporter: mCherry (pCS4076), ligand present: no
Procedure, shortened: (§2)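 HEK293T cells were transfected with library plasmids carrying ribozyme switches linked to an mCherry reporter, or an eGFP reporter in some ligand experiments, at 4 µg per well of a 6-well plate, with any ligand added 1 h beforehand. After 72 h, total RNA was extracted with EDTA, reverse-transcribed, amplified, barcoded and sequenced. RNA level was defined as RNA reads over DNA reads, normalized to a spiked-in non-cleaving sequence or to the top-ranked sequences. That value was multiplied by 100 and converted to log10, the top set was 25 sequences, and only sequences with ≥100 DNA reads were retained.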

cyclic di-GMP [3] = variants of: B1; assay: FACS-Seq fitted mean relative fluorescence mCherry/BFP with ligand (log10 relative fluorescence); HEK293T; ligand: cyclic di-GMP (c-di-GMP-II aptamer); ligand concentration (+) FACS-Seq: 1 mM; higher = higher reporter protein expression; settings: ligand present: yes
Procedure, shortened: as §1

cyclic di-GMP [4] = variants of: B1; assay: normalized RNA/DNA level with ligand (relative to sTRSVctl = 100) (log10 (% of sTRSVctl)); HEK293T; ligand: cyclic di-GMP (c-di-GMP-II aptamer); ligand concentration (+) RNA-Seq: 1 mM; higher = less ribozyme self-cleavage, higher mRNA level; settings: reporter: mCherry (pCS4076), ligand present: yes
Procedure, shortened: as §2

Variant | FACS-Seq fitted mean (log10) (cyclic di-GMP [1]) | normalized RNA/DNA level without ligand (log10) (cyclic di-GMP [2]) | FACS-Seq fitted mean (log10) (cyclic di-GMP [3]) | normalized RNA/DNA level with ligand (log10) (cyclic di-GMP [4])
UUUAAU | 0.192 ± 0.051 | 1.698 ± 0.015 | 0.405 ± 0.0074 | 1.84 ± 0.08
UUUAAC | 0.0586 ± 0.15 | 1.7 ± 0.022 | 0.264 ± 0.026 | 1.84 ± 0.099
CAAGCC |  | 1.76 ± 0.022 |  | 1.85 ± 0.087
CAAGCA |  | 1.63 ± 0.035 |  | 1.76 ± 0.11
CAAGCU |  | 1.67 ± 0.021 |  | 1.83 ± 0.071
CAAGCG |  | 1.74 ± 0.052 |  | 1.85 ± 0.11
UAAAGG |  | 1.635 ± 0.0018 |  | 1.78 ± 0.088
UAAAGC |  | 1.676 ± 0.0024 |  | 1.82 ± 0.1
UAAAGU |  | 1.54 ± 0.076 |  | 1.77 ± 0.048
GUUCGA | -0.345 ± 0.023 | 1.6 ± 0.018 | 0.045 ± 0.055 | 1.75 ± 0.12
GUUCGU | -0.35 ± 0.027 | 1.66 ± 0.01 | 0.0521 ± 0.011 | 1.8 ± 0.074
GUUUAU | -0.2549 ± 0.0013 | 1.652 ± 0.0032 | -0.31 ± 0.34 | 1.81 ± 0.086
AAAGGC |  | 1.6 ± 0.044 |  | 1.77 ± 0.14
UUUAGU | 0.00244 ± 0.12 | 1.732 ± 0.013 | 0.273 ± 0.034 | 1.87 ± 0.088
CAAGUC |  | 1.7 ± 0.055 |  | 1.78 ± 0.14
CAAGUG |  | 1.68 ± 0.045 |  | 1.84 ± 0.12
GUUACU | -0.232 ± 0.064 | 1.75 ± 0.027 | 0.0991 ± 0.015 | 1.82 ± 0.13
GAACUG |  | 1.66 ± 0.059 |  | 1.75 ± 0.089
GAACUU |  | 1.68 ± 0.051 |  | 1.83 ± 0.096
GAACUC |  | 1.725 ± 0.004 |  | 1.85 ± 0.1
GAACCU |  | 1.69 ± 0.033 |  | 1.86 ± 0.08
GAACCA |  | 1.677 ± 0.0078 |  | 1.8 ± 0.13

Variant | FACS-Seq fitted mean (log10) (cyclic di-GMP [1]) | normalized RNA/DNA level without ligand (log10) (cyclic di-GMP [2]) | FACS-Seq fitted mean (log10) (cyclic di-GMP [3]) | normalized RNA/DNA level with ligand (log10) (cyclic di-GMP [4])
GAACCG |  | 1.7241 ± 0.00012 |  | 1.81 ± 0.1
AUUACG | -0.439 ± 0.014 | 1.67 ± 0.032 | -0.0914 ± 0.065 | 1.83 ± 0.072
GUUGCG | -0.248 ± 0.029 | 1.81 ± 0.023 | 0.0336 ± 0.026 | 1.88 ± 0.092
UAAUAC |  | 1.68 ± 0.013 |  | 1.81 ± 0.075
UAAUAA |  | 1.66 ± 0.018 |  | 1.8 ± 0.085
AUUGUA | -0.397 ± 0.017 | 1.56 ± 0.031 | 0.0499 ± 0.075 | 1.71 ± 0.097
GAAGGG |  | 1.53 ± 0.048 |  | 1.69 ± 0.079
GAAGGU |  | 1.58 ± 0.08 |  | 1.77 ± 0.052
GAAGGC |  | 1.62 ± 0.023 |  | 1.79 ± 0.13
CUUAGC | -0.863 ± 0.058 | 1.79 ± 0.00046 | -0.484 ± 0.043 | 1.88 ± 0.11
GUUAGA | -0.409 ± 0.02 | 1.51 ± 0.12 | -0.0172 ± 0.12 | 1.73 ± 0.11
GUUAGG | -0.197 ± 0.021 | 1.56 ± 0.061 | 0.171 ± 0.057 | 1.72 ± 0.076
AAAACU |  | 1.669 ± 0.0017 |  | 1.79 ± 0.086
AAAACC |  | 1.68 ± 0.014 |  | 1.81 ± 0.083
AAAACA |  | 1.51 ± 0.072 |  | 1.7 ± 0.074
CAACAG |  | 1.6987 ± 0.0016 |  | 1.85 ± 0.13
CAACAC |  | 1.58 ± 0.028 |  | 1.77 ± 0.12
GUUUGA | -0.499 ± 0.039 | 1.56 ± 0.086 | -0.212 ± 0.018 | 1.71 ± 0.042
GUUUGC | -0.138 ± 0.079 | 1.66 ± 0.043 | 0.164 ± 0.012 | 1.79 ± 0.15
GUUUGG | -0.428 ± 0.018 | 1.62 ± 0.068 | -0.249 ± 0.089 | 1.8 ± 0.13
GUUUUU | -0.978 ± 0.05 | 1.715 ± 0.0068 | -0.711 ± 0.12 | 1.87 ± 0.12
GUUUUG | 0.124 ± 0.17 | 1.61 ± 0.095 | 0.384 ± 0.05 | 1.8 ± 0.083

Variant | FACS-Seq fitted mean (log10) (cyclic di-GMP [1]) | normalized RNA/DNA level without ligand (log10) (cyclic di-GMP [2]) | FACS-Seq fitted mean (log10) (cyclic di-GMP [3]) | normalized RNA/DNA level with ligand (log10) (cyclic di-GMP [4])
UUUGUA | -0.5429 ± 0.0021 | 1.708 ± 0.002 | -0.268 ± 0.088 | 1.85 ± 0.13
UUUGUU | -0.123 ± 0.13 | 1.73 ± 0.063 | 0.125 ± 0.064 | 1.86 ± 0.13
AAAUAC |  | 1.665 ± 0.0071 |  | 1.8 ± 0.11
AUUGAA | -0.159 ± 0.14 | 1.48 ± 0.079 | 0.152 ± 0.0043 | 1.66 ± 0.031
GUUCUA | -0.743 ± 0.033 | 1.635 ± 0.0068 | -0.5214 ± 0.0042 | 1.75 ± 0.095
GUUCUG | -0.079 ± 0.018 | 1.67 ± 0.021 | 0.284 ± 0.091 | 1.84 ± 0.15
AAAAAA |  | 1.37 ± 0.12 |  | 1.6 ± 0.078
AAAAAU |  | 1.547 ± 0.0027 |  | 1.72 ± 0.13
AAAAAG |  | 1.45 ± 0.09 |  | 1.66 ± 0.082
AAAAAC |  | 1.61 ± 0.031 |  | 1.74 ± 0.13
AUUCGG | -0.4 ± 0.23 | 1.7 ± 0.019 | 0.0339 ± 0.063 | 1.82 ± 0.2
AUUCGC | -0.123 ± 0.015 | 1.7768 ± 0.00017 | 0.194 ± 0.063 | 1.91 ± 0.11
CUUCAA | -0.32 ± 0.059 | 1.43 ± 0.099 | 0.136 ± 0.056 | 1.64 ± 0.083
CUUCAU | -0.264 ± 0.079 | 1.58 ± 0.044 | -0.136 ± 0.066 | 1.75 ± 0.12
AUUAAA | -0.425 ± 0.11 | 1.53 ± 0.048 | -0.0171 ± 0.053 | 1.71 ± 0.12
CUUGAC | -0.287 ± 0.2 | 1.69 ± 0.024 | 0.101 ± 0.066 | 1.83 ± 0.085
CUUGAA | -0.585 ± 0.066 | 1.35 ± 0.11 | -0.291 ± 0.046 | 1.55 ± 0.086
CUUAUA | -0.487 ± 0.096 | 1.44 ± 0.09 | -0.184 ± 0.028 | 1.65 ± 0.088
CUUUCC | 0.0673 ± 0.015 | 1.82 ± 0.038 | 0.163 ± 0.01 | 1.93 ± 0.11
CUUUCA | -0.391 ± 0.0064 | 1.42 ± 0.11 | -0.114 ± 0.028 | 1.66 ± 0.051
CUUUCU | -0.275 ± 0.072 | 1.65 ± 0.072 | 0.0435 ± 0.082 | 1.77 ± 0.095
AUUCAG | -0.308 ± 0.062 | 1.59 ± 0.026 | -0.0248 ± 0.0054 | 1.74 ± 0.1

Variant | FACS-Seq fitted mean (log10) (cyclic di-GMP [1]) | normalized RNA/DNA level without ligand (log10) (cyclic di-GMP [2]) | FACS-Seq fitted mean (log10) (cyclic di-GMP [3]) | normalized RNA/DNA level with ligand (log10) (cyclic di-GMP [4])
GAAAAC |  | 1.59 ± 0.016 |  | 1.74 ± 0.063
GAAAUC |  | 1.659 ± 0.012 |  | 1.81 ± 0.11
CAACGU |  | 1.67 ± 0.025 |  | 1.82 ± 0.096
CAACGC |  | 1.757 ± 0.014 |  | 1.84 ± 0.11
CAACGA |  | 1.56 ± 0.063 |  | 1.73 ± 0.11
CAACGG |  | 1.671 ± 0.012 |  | 1.77 ± 0.061
AUUAUC | -0.473 ± 0.04 | 1.72 ± 0.062 | -0.167 ± 0.081 | 1.84 ± 0.13
GUUGAG | -0.16 ± 0.072 | 1.55 ± 0.081 | 0.0985 ± 0.045 | 1.72 ± 0.11
GUUGAC | -0.0708 ± 0.036 | 1.658 ± 0.008 | 0.228 ± 0.1 | 1.79 ± 0.099
CUGUUA | -0.289 ± 0.046 | 1.33 ± 0.091 | 0.158 ± 0.13 | 1.58 ± 0.084
CUUAAA | -0.598 ± 0.053 | 1.37 ± 0.072 | -0.238 ± 0.21 | 1.53 ± 0.16
CUUAAU | -0.0367 ± 0.24 | 1.55 ± 0.096 | 0.142 ± 0.073 | 1.71 ± 0.1
CAAAAG |  | 1.656 ± 0.0082 |  | 1.77 ± 0.14
AAAAGU |  | 1.52 ± 0.071 |  | 1.71 ± 0.057
UAACCA |  | 1.74 ± 0.036 |  | 1.86 ± 0.13
UAACCG |  | 1.72 ± 0.12 |  | 1.81 ± 0.13
UAACCU |  | 1.71 ± 0.031 |  | 1.86 ± 0.072
UAACCC |  | 1.77 ± 0.021 |  | 1.9 ± 0.08
AUUAGC | -0.0321 ± 0.09 | 1.6567 ± 0.0015 | 0.226 ± 0.11 | 1.76 ± 0.16
UUUUCG | -0.162 ± 0.14 | 1.78 ± 0.035 | 0.00347 ± 0.15 | 1.9 ± 0.12
